Data published in publication PMC5725882 (Cell Discovery, 2017).

How the values were obtained:
Conditions in all cases: both partners purified
[1] = molecular target: T1, ND1p97wt (N-D1 fragment of wild-type p97, residues 1-480) (UniProt P55072 1-480); assay: ITC; VIMPx titrated into p97; iTC200, 25 C; 50 mM Tris pH 8.0, 150 mM NaCl, 2 mM MgCl2, 5% glycerol; 2 mM ADP in both samples; one-site model
T1 construct: p97 (valosin-containing protein, VCP), N-D1 long fragment, residues 1-480, wild type; also called N-D1 long; ND1p97 (residue 1-480)
T1 sequence (P55072 1-480): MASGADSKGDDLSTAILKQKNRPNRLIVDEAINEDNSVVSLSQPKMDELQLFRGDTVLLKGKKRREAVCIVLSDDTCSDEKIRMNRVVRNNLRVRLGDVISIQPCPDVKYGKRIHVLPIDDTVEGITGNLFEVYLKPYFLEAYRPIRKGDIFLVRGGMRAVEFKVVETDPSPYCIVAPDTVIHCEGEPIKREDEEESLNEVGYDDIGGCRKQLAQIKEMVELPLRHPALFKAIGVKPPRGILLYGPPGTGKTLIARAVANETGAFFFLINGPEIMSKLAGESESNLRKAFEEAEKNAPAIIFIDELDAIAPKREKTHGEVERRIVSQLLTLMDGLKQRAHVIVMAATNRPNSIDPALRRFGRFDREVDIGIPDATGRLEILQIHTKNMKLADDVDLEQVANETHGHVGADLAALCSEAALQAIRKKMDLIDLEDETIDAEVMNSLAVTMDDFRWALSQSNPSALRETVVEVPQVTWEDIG

[2] = molecular target: T1, ND1p97wt (N-D1 fragment of wild-type …); assay: ITC; VIMPx titrated into p97; iTC200, 25 C; 50 mM Tris pH 8.0, 150 mM NaCl, 2 mM MgCl2, 5% glycerol; 2 mM AMP-PNP in both samples; one-site model
[3] = molecular target: T2, FLp97wt (full-length wild-type p97, residues 1-806) (UniProt P55072 1-806); assay: as above
T2 construct: p97 (valosin-containing protein, VCP), full length, residues 1-806, wild type; also called VCP; valosin-containing protein
T2 sequence (P55072 whole entry, the tested form may be a part): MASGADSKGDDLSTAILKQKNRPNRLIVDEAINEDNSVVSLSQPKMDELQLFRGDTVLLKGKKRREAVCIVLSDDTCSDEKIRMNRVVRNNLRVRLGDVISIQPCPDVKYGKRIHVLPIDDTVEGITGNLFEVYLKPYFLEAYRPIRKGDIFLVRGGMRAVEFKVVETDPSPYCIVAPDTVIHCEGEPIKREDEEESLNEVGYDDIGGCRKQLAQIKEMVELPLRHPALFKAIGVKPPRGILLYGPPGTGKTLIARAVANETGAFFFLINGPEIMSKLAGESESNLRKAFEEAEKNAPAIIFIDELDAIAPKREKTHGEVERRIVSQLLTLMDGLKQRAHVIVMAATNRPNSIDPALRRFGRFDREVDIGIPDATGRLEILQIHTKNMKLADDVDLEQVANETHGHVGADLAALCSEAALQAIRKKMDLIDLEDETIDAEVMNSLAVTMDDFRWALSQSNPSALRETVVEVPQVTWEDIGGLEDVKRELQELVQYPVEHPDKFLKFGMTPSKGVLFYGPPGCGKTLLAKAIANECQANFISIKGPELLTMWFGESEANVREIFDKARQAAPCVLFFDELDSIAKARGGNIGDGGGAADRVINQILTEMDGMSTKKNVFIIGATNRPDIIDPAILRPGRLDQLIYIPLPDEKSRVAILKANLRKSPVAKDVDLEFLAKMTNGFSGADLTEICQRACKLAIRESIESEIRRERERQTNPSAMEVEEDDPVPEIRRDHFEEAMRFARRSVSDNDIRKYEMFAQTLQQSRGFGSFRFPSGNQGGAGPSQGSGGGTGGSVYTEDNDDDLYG

[4] = molecular target: T3, full-length wild-type p97 (^FLp97^wt) (UniProt P55072 1-806); assay: pull-down; GST-VIMP variants on glutathione resin, p97 proteins in solution; 20 mM Tris pH 8.0, 150 mM NaCl, 3 mM MgCl2, 10% glycerol, 0.1% Triton X-100, 4 C, 2 mM ATPγS or AMP-PNP (Figures 3b and 4e: AMP-PNP); SDS-PAGE
T3 construct: p97 (valosin-containing protein, VCP), full-length, residues 1-806; also called VCP; valosin-containing protein; source: purified; expression and purification as described previously [13, 42, 44]
T3 sequence (P55072 whole entry, the tested form may be a part): as above

[5] = molecular target: T4, full-length p97 A232E (^FLp97^mt) (UniProt P55072 1-806, A232E); assay: as above
T4 construct: p97 (VCP), full-length, residues 1-806, MSP1-associated mutation A232E; also called FLp97 A232E; pathogenic p97 variant A232E; source: purified; expression and purification as described previously [13, 42, 44]
T4 sequence (P55072 whole entry A232E, the tested form may be a part): as the sequence (P55072 whole entry, the tested form may be a part) above, with A232E counted along it

[6] = molecular target: T5, N-D1 fragment of p97 A232E, long form (^ND1p97^mt, residues 1-480) (UniProt P55072 1-480, A232E); assay: as above
T5 construct: p97 (VCP), N-D1 fragment, residues 1-480, pathogenic mutation A232E; also called ND1p97 A232E (1-480); source: purified; expression and purification as described previously [13, 42, 44]
T5 sequence (P55072 1-480 A232E): as the sequence (P55072 1-480) above, with A232E counted along it

[7] = molecular target: T6, full-length p97 R155H (^FLp97^mt) (UniProt P55072 1-806, R155H); assay: as above
T6 construct: p97 (VCP), full-length, residues 1-806, MSP1-associated mutation R155H; also called FLp97 R155H; pathogenic p97 variant R155H; source: purified; expression and purification as described previously [13, 42, 44]
T6 sequence (P55072 whole entry R155H, the tested form may be a part): as the sequence (P55072 whole entry, the tested form may be a part) above, with R155H counted along it

[8] = molecular target: T7, full-length p97 L198W (^FLp97^mt) (UniProt P55072 1-806, L198W); assay: as above
T7 construct: p97 (VCP), full-length, residues 1-806, MSP1-associated mutation L198W; also called FLp97 L198W; pathogenic p97 variant L198W; source: purified; expression and purification as described previously [13, 42, 44]
T7 sequence (P55072 whole entry L198W, the tested form may be a part): as the sequence (P55072 whole entry, the tested form may be a part) above, with L198W counted along it

[9] = molecular target: T8, N-D1 fragment of p97 L198W, long form (^ND1p97^mt, residues 1-480) (UniProt P55072 1-480, L198W); assay: as above
T8 construct: p97 (VCP), N-D1 fragment, residues 1-480, pathogenic mutation L198W; also called ND1p97 L198W (1-480); source: purified; expression and purification as described previously [13, 42, 44]
T8 sequence (P55072 1-480 L198W): as the sequence (P55072 1-480) above, with L198W counted along it

[10] = molecular target: T9, N-D1 fragment of p97 R155H, long form (^ND1p97^mt, residues 1-480) (UniProt P55072 1-480, R155H); assay: as above
T9 construct: p97 (VCP), N-D1 fragment, residues 1-480, pathogenic mutation R155H; also called ND1p97 R155H; source: purified; expression and purification as described previously [13, 42, 44]
T9 sequence (P55072 1-480 R155H): as the sequence (P55072 1-480) above, with R155H counted along it

[11] = molecular target: T10, N-D1 fragment of wild-type p97, long form (^ND1p97^wt, residues 1-480) (UniProt P55072 1-480); assay: as above
T10 construct: p97 (VCP), N-D1 fragment, residues 1-480 (the form used in pull-down and ITC); also called N-D1 long; source: purified; expression and purification as described previously [13, 42, 44]
T10 sequence (P55072 1-480): as the sequence (P55072 1-480) above

Row | Binder | Kd [1] [µM] | stoichiometry N [1] | Kd [2] [µM] | stoichiometry N [2] | Kd [3] [µM] | stoichiometry N [3] | binding result [4] | binding result [5] | binding result [6] | binding result [7] | binding result [8] | binding result [9] | binding result [10] | binding result [11]
1 | VIMPx (VCP-interacting membrane protein, residues 49-122) (domain or fragment, UniProt Q9BQE4 49-122, looked up, VIMP (selenoprotein S), fragment of the cytosolic segment, residues 49-122 (stop codon after M122); also called His-VIMPx; selenoprotein S; source: E. coli BL21(DE3), purified (Ni-NTA, Superdex 75)) QKLSARLRALRQRQLDRAAAAVEPDVVVKRQEALAAARLKMQEELNAQVEKHKEKLKQLEEEKRRQKIEMWDSM | 6.21 ± 0.85 | 1.13 ± 0.06 | 5.52 ± 0.26 | 0.98 ± 0.05 | 7 ± 0.13 | 0.66 ± 0.08 |  |  |  |  |  |  |  | 
2 | AVEPDVVVKRQEALAAARLKMQEELNAQVEKHKEKLKQLE (domain or fragment, UniProt Q9BQE4 69-108, looked up, VIMP (selenoprotein S), 40 residues A69-E108; source: held on glutathione resin) [GST-VIMP minimal fragment (A69-E108)] |  |  |  |  |  |  | binds |  |  |  |  |  |  | 
3 | GST-tagged cytosolic segment of VIMP (GST-VIMPc, residues 49-187) (domain or fragment, UniProt Q9BQE4 49-187, looked up, source: held on glutathione resin) QKLSARLRALRQRQLDRAAAAVEPDVVVKRQEALAAARLKMQEELNAQVEKHKEKLKQLEEEKRRQKIEMWDSMQEGKSYKGNAKKPQEEDSPGPSTSSVLKRKSDRKPLRGGGYNPLSGEGGGACSWRPGRRGPSSGG |  |  |  |  |  |  | binds | binds | binds | binds | binds | binds | binds | binds
